From paper PMC10302475
Where “and” joins values, the source holds several entries; their conditions need not be identical. Equal entries are not always repeated.

Target: Sox6 HMG domain (human) (UniProt P35712)
Test: UV laser footprinting
Settings: 10 mM Tris pH 7.4, 75 mM NaCl, 1 mM EDTA, 1 mM DTT, BSA (100 mg/mL [sic]), 0.01% NP40, 5% glycerol, 37 C, 50 nM DNA or nucleosome (Kdapp is not true Kd) …

Sequence of Sox6 HMG domain (human) (P35712 618-697): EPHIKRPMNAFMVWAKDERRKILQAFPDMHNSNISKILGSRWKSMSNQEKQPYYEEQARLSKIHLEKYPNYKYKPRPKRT

Q: For “GCATGATTCTTAAGACCGAGTTCATCCCTTATGTGATGGACCCTATACGCGGCCGCCATCAGAATCCCGGTGCCGAGGCCGCTCAATTGGTCGTAGACAGCTCTAGCACCGCTTAAACGCACGTACGCGCTGTCCCCCGCGTTTTAACCGCCAAGGGGATTACTCCGGACAATGGAGGCACGTGTCAGATATATACATCGATGTGCATGTATTGAACAGCGACCTTGCCGGTGCCAGTCGGATAGAATTCCGGAC (double strand) [601-SHL4 naked DNA]”, which K half is on record?
A: 180 nM

Q: “GCATGATTCTTAAGACCGAGTTCATCCCTTATGTGATGGACCCTATACGCGGCCGCCATCAGAATCCCGGTGCCGAGGCCGCTCAATTGGTCGTAGACAGCTCTAGCACCGCTTAAACGCACGTACGCGCTGTCCCCCGCGTTTTAACCGCCAAGGGGATTACTCCGGACAATGGAGGCACGTGTCAGATATATACATCGATGTGCATGTATTGAACAGCGACCTTGCCGGTGCCAGTCGGATAGAATTCCGGAC (double strand) [601-SHL4 nucleosome]” was tested. Which K half (apparent Kd, SHL4 site) did it give?
A: 490 nM

Q: How did the K half turn out when “GCATGATTCTTAAGACCGAGTTCATCCCTTATGTGATGGACCCTATACGCGGCCGCCATCAGAATCCCGGTGCCGAGGCCGCTCAATTGGTCGTAGACAGCTCTAGCACCGCTTAAACGCACGTACGCGCTGTCCCCCGCGTTTTGGACAATGGAGGCATTACTCCCTAGTCTCCAGGCACGTGTCAGATATATACATCGATGTGCATGTATTGAACAGCGACCTTGCCGGTGCCAGTCGGATAGAATTCCGGAC (double strand) [601-SHL2 naked DNA]” was run?
A: 136 nM

Q: For “GCATGATTCTTAAGACCGAGTTCATCCCTTATGTGATGGACCCTATACGCGGCCGCCATCAGAATCCCGGTGCCGAGGCCGCTCAATTGGTCGTAGACAGCTCTAGCACCGCTTAAACGCACGTACGCGCTGTCCCCCGCGTTTTGGACAATGGAGGCATTACTCCCTAGTCTCCAGGCACGTGTCAGATATATACATCGATGTGCATGTATTGAACAGCGACCTTGCCGGTGCCAGTCGGATAGAATTCCGGAC (double strand) [601-SHL2 nucleosome]”, which K half (apparent Kd, SHL2 site) is on record?
A: 374 nM

Q: With “GCATGATTCTTAAGACCGAGTTCATCCCTTATGTGATGGACCCTATACGCGGCCGCCATCAGAATCCCGGTGCCGAGGCCGCTCAATTGGTCGTAGACAGCTCTAGCACCGCTTAAACGCACGTAGGACAATGGAGGCGCGTTTTAACCGCCAAGGGGATTACTCCCTAGTCTCCAGGCACGTGTCAGATATATACATCGATGTGCATGTATTGAACAGCGACCTTGCCGGTGCCAGTCGGATAGAATTCCGGAC (double strand) [601-SHL0 naked DNA]” as the sequence, how does the K half read?
A: 100 nM

Q: “GCATGATTCTTAAGACCGAGTTCATCCCTTATGTGATGGACCCTATACGCGGCCGCCATCAGAATCCCGGTGCCGAGGCCGCTCAATTGGTCGTAGACAGCTCTAGCACCGCTTAAACGCACGTAGGACAATGGAGGCGCGTTTTGGACAATGGAGGCATTACTCCGGACAATGGAGGCACGTGTCAGATATATACATCGATGTGCATGTATTGAACAGCGACCTTGCCGGTGCCAGTCGGATAGAATTCCGGAC (double strand) [601-SHL024 naked DNA]” was tested. Which K half did it give?
A: 198 nM and 275 nM and 245 nM

Q: How did the K half (apparent Kd, SHL2 site of 3x) turn out when “GCATGATTCTTAAGACCGAGTTCATCCCTTATGTGATGGACCCTATACGCGGCCGCCATCAGAATCCCGGTGCCGAGGCCGCTCAATTGGTCGTAGACAGCTCTAGCACCGCTTAAACGCACGTAGGACAATGGAGGCGCGTTTTGGACAATGGAGGCATTACTCCGGACAATGGAGGCACGTGTCAGATATATACATCGATGTGCATGTATTGAACAGCGACCTTGCCGGTGCCAGTCGGATAGAATTCCGGAC (double strand) [601-SHL024 nucleosome]” was run?
A: 550 nM

Q: What about the K half (apparent Kd, SHL4 site of 3x) of the same sequence?
A: 680 nM
